In this assay the target is T1, APOC2 (Homo sapiens, UniProt P02655).
T1 chain: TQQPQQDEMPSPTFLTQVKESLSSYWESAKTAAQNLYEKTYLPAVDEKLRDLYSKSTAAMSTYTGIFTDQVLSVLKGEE
The assay can be described thus: biolayer interferometry. On the technique in general: BLI is a label-free optical method that tracks binding on a fibre tip over time.

B1: CD36 (protein)
chain: GCDRNCGLIAGAVIGAVLAVFGGILMPVGDLLIQKTIKKQVVLEEGTIAFKNWVKTGTEVYRQFWIFDVQNPQEVMMNSSNIQVKQRGPYTYRVRFLAKENVTQDAEDNTVSFLQPNGAIFEPSLSVGTEADNFTVLNLAVAAASHIYQNQFVQMILNSLINKSKSSMFQVRTLRELLWGYRDPFLSLVPYPVTTTVGLFYPYNNTADGVYKVFNGKDNISKVAIIDTYKGKRNLSYWESHCDMINGTDAASFPPFVEKSQVLQFFSSDICRSIYAVFESDVNLKGIPVYRFVLPSKAFASPVENPDNYCFCTEKIISKNCTSYGVLDISKCKEGRPVYISLPHFLYASPDVSEPIDGLNPNEEEHRTYLDIEPITGFTLQFAKRLQVNLLVKPSEKIQVLKNLKRNYIVPILWLNETGTIGDEKANMFRSQVTGKINLLGLIEMILLSVGVVMFVAFMISYCACRSKTIK
Usually Kd stands for the free concentration of one partner at which half of the binding sites on the other are occupied at equilibrium, for simple one-to-one binding. A low value points to tighter binding. B1: the affinity, expressed as Kd, was 128 nM.

Source of the values: PMC8351524 (2021).
